# B1: K^b/S208-215-binding peptide 1 of HBsAgadw2 (IVSPFIPL) (peptide)
# peptide: IVSPFIPL
# Molecular target: Affinity-purified MHC class I molecules K^b with human β2m (mouse (H-2^b); human)
binder,measurement,value
B1,IC50,773 nM
